Experimental data taken from article PMC4834570.

Target: A1-tagged Gal-1 (galectin-1) (UniProt P09382)
Assay: FRET or BRET; in vitro sensitized acceptor emission FRET titration; 100 nM ATTO-488-labelled Gal-1 titrated with 100 nM to 1000 nM DY-547-labelled C-Raf-RBD; 25 mM HEPES, 100 mM NaCl, 3 mM MgCl2, 3 mM DTT, pH 7.2

Substance: A1-tagged C-Raf-RBD (from UniProt P04049 56-131) (domain or fragment)
- Kd: 106 nM
